Source: the supplement of paper PMC9170038

System: MS2 coat protein
Assay: apparent KD of MS2 coat protein; higher = weaker reporter binding
Conditions: Eterna round: R107
Summary of the method: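 Apparent KD was obtained for each design as the median of normalised binding-curve fits over its clusters. RNA switches transcribed on-chip from Illumina sequencing clusters were titrated with SNAP-549-labelled MS2 coat protein (twofold steps, 0.7 or 1.5 nM to 3 µM) in 100 mM Tris-HCl pH 7.5, 80 mM KCl, 4 mM MgCl2, without or with constant ligand.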

[1] = input ligand: theophylline 20 uM
[2] = input ligand: theophylline 2 mM
[3] = input ligand: tryptophan 2.4 mM

In the case of “AUAACAUGAGGAUCACCCAUGUAAGCUGAAGGAGCGCUGGAAACAGCAGGUAGGUCGCAGCGGCGACCUUCAUGGGUAAGGUCGC [(M1)-(M2)-(Arg1)-(Arg2)-(A)'-(M)'-(A)''_Design4]”, the “apparent KD of MS2 coat protein” value (input ligand: arginine 13.2 mM) was 33.1 nM, the “apparent KD of MS2 coat protein” value (input ligand: none) was 32.8 nM and the “apparent KD of MS2 coat protein” value [1] was 41.2 nM. The “apparent KD of MS2 coat protein” value [2] was 40.5 nM and the “apparent KD of MS2 coat protein” value [3] was 30.4 nM.

In the case of “UGUGACAUGAGGAUCACCCAUGUAAGGGAAGGAGCGCCGAAUAAGGCAGGUAGGUCGCCCAAGAUAGAAGAAUAAUAAGAUUGUG [Arginine A Same State; Euphoria Solution]”, the “apparent KD of MS2 coat protein” value (input ligand: arginine 13.2 mM) was 20.8 nM, the “apparent KD of MS2 coat protein” value (input ligand: none) was 27.1 nM and the “apparent KD of MS2 coat protein” value [1] was 39.9 nM. For the same sequence, the “apparent KD of MS2 coat protein” value [2] was 27.9 nM and the “apparent KD of MS2 coat protein” value [3] was 28.3 nM.

For “GUACAUGAGGAUCACCCAUGUAUAGUUGAAGGAGCGACCAGAGGGUCAGGUAGGUCGCAGCACAUGGUGAAAACCCGUGUAUGCC [#1 Exclusion - Arginine A Attempt #21 (Inspired by Pi)]”, the “apparent KD of MS2 coat protein” value (input ligand: arginine 13.2 mM) was 40.4 nM, the “apparent KD of MS2 coat protein” value (input ligand: none) was 33.4 nM and the “apparent KD of MS2 coat protein” value [1] was 61.7 nM. The “apparent KD of MS2 coat protein” value [2] was 49.1 nM and the “apparent KD of MS2 coat protein” value [3] was 27.6 nM.

In the case of “ACAUGAGGAUCACCCAUGUAAAUAGCGGAAGGAGCGUGCAAAAGCACAGGUAGGUCGCCGAUAUAAUAAUUGGGUAAUAUAUUAU [#27 Exclusion - Arginine A]”, the “apparent KD of MS2 coat protein” value (input ligand: arginine 13.2 mM) was 17.7 nM, the “apparent KD of MS2 coat protein” value (input ligand: none) was 39.1 nM and the “apparent KD of MS2 coat protein” value [1] was 24.6 nM. For the same sequence, the “apparent KD of MS2 coat protein” value [2] was 26.2 nM and the “apparent KD of MS2 coat protein” value [3] was 26.9 nM.

In the case of “GGGACACCGAGAAGGAGCGCAUCCAAACCACACAUGAGGAUCACCCAUGUAUAAAUAUGCAUGCAGGUAGGUCGCUCGGCGUCUC [Orordionbi]”, the “apparent KD of MS2 coat protein” value (input ligand: arginine 13.2 mM) was 76.5 nM, the “apparent KD of MS2 coat protein” value (input ligand: none) was 120 nM and the “apparent KD of MS2 coat protein” value [1] was 112 nM. For the same sequence, the “apparent KD of MS2 coat protein” value [2] was 134 nM and the “apparent KD of MS2 coat protein” value [3] was 111 nM.

For “AUGGAGACCUCGGCCGCCACUCUCCAUGAGGAUCUCCCAUGUAACAUGAGGAUCACCCAUGUACUGAGGACCGGGAGGUCCUUGA [Same State Tryptophan B GF 17]”, the “apparent KD of MS2 coat protein” value (input ligand: arginine 13.2 mM) was 7.9 nM, the “apparent KD of MS2 coat protein” value [1] was 10.8 nM and the “apparent KD of MS2 coat protein” value [2] was 10.1 nM.

“UAUCCACAUGAGGAUCACCCAUGUGAGGAAGGAGCGGUGAAUGCACCAGGUAGGUCGCCUUGCUGAGGACAGCCGGUGGAUUCGU [Exclusion - Arginine A (Freestyle 25)]” was tested, and the “apparent KD of MS2 coat protein” value (input ligand: arginine 13.2 mM) was 13.5 nM, the “apparent KD of MS2 coat protein” value (input ligand: none) was 12.4 nM and the “apparent KD of MS2 coat protein” value [1] was 16.2 nM. For the same sequence, the “apparent KD of MS2 coat protein” value [2] was 15.8 nM and the “apparent KD of MS2 coat protein” value [3] was 18.3 nM.

With “UCCACACAUGAGGAUCACCCAUGUUGAGAUACCAGUAAACCAAAAUACCCUUGGCAGCUCCUACGCUCUUACAGCGGGAAUAUCC [theeternabot_sameState_MS2_Theo_A_46]” the “apparent KD of MS2 coat protein” value (input ligand: arginine 13.2 mM) was 14.3 nM, the “apparent KD of MS2 coat protein” value [1] was 19.5 nM and the “apparent KD of MS2 coat protein” value [3] was 14.9 nM.

With “AUUCAUGGAAACAUGACAUAGGGAUCUAGCCGAGGACCGGUACGGCCGCCACUCGCUUGGAGGCACAUGAGGAUCACCCAUGUUA [SS Tryp A #6]” the “apparent KD of MS2 coat protein” value (input ligand: arginine 13.2 mM) was 42.3 nM, the “apparent KD of MS2 coat protein” value [1] was 140 nM and the “apparent KD of MS2 coat protein” value [2] was 140 nM.

With “ACACGAGGAUCACCCGUGUCAUGUGGUGAUACCAGUUUACAUGAGAACCCUUGGCAGCAUAACAACAUGAGGAUCACCCAUGUCA [Same State - Theophylline A #1]” the “apparent KD of MS2 coat protein” value (input ligand: arginine 13.2 mM) was 24.4 nM, the “apparent KD of MS2 coat protein” value [1] was 40.4 nM and the “apparent KD of MS2 coat protein” value [3] was 35 nM.

With “AUAAAUAUAACCGAUACCAGCCUUAUACAUGAGGAUCACCCAUGUUAUGCUUCCUUUUUUGGCCCUUGGCAGCGGAAAUGGGUAA [AstrosSSTheB#2]” the “apparent KD of MS2 coat protein” value (input ligand: arginine 13.2 mM) was 47.6 nM, the “apparent KD of MS2 coat protein” value [1] was 65.8 nM and the “apparent KD of MS2 coat protein” value [3] was 65.3 nM.

In the case of “UACCGAUGAAGAAGGAGCGUGCGUGGUUCACAUGAGGAUCACCCAUGUGCUUUAUACUAGGCACAGGUAGGUCGCUUCAUCGGUA [SSAB NP+V+V2 #22]”, the “apparent KD of MS2 coat protein” value (input ligand: arginine 13.2 mM) was 24.3 nM, the “apparent KD of MS2 coat protein” value (input ligand: none) was 19.4 nM and the “apparent KD of MS2 coat protein” value [1] was 30.7 nM. The “apparent KD of MS2 coat protein” value [2] was 27.8 nM and the “apparent KD of MS2 coat protein” value [3] was 23.3 nM.

With “UCGUCCUCCGCAAGGAGGAGGAGUUGCGAUACCAGCACGGUAACGUGCCCUUGGCAGCGCACAUGAGGAUCACCCAUGUGGUGUU [#1 Exclusion - Theophylline A Attempt #13 (HarryS)]” the “apparent KD of MS2 coat protein” value (input ligand: arginine 13.2 mM) was 59.3 nM, the “apparent KD of MS2 coat protein” value [1] was 425 nM and the “apparent KD of MS2 coat protein” value [3] was 188 nM.

For “AGUCUUGUGGGAAGGAGCGCAUACUUCACAUGAGGAUCACCCAUGUCAAGACGUGAGUCAGUGCAGGUAGGUCGCCUAACUAAGA [Same State - Arginine B (Freestyle 15)]”, the “apparent KD of MS2 coat protein” value (input ligand: arginine 13.2 mM) was 53.1 nM, the “apparent KD of MS2 coat protein” value (input ligand: none) was 30.3 nM and the “apparent KD of MS2 coat protein” value [1] was 37.4 nM. The “apparent KD of MS2 coat protein” value [2] was 35.8 nM and the “apparent KD of MS2 coat protein” value [3] was 28.2 nM.

“GCUAGGUCAUCGGCCGCCACUAACGACGGUUCCAACAUGAGGAUCACCCAUGUGCCACAUGCGCAUAGGACCGGGAUGACCUAGC [SSTB NP+V+V2 #5]” was tested, and the “apparent KD of MS2 coat protein” value (input ligand: arginine 13.2 mM) was 31.1 nM, the “apparent KD of MS2 coat protein” value [1] was 51.2 nM and the “apparent KD of MS2 coat protein” value [2] was 42.7 nM.
